Assay results reported in patent US20130101549A1 (Biogen, published 2013).

T1: Her2-Fc D1-D2 (MR067)
T1 construct: also called ErbB2-Fc Domains 1-2
T1 chain: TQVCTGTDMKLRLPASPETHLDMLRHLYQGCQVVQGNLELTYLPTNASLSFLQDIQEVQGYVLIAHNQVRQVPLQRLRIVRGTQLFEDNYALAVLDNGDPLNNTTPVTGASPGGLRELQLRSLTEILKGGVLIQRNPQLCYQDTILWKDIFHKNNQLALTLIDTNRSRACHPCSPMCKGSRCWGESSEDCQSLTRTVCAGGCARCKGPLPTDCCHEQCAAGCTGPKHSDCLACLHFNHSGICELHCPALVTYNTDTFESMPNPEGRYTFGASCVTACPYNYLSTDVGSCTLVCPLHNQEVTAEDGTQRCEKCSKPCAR

T2: Her2-Fc D1 (MR066)
T2 construct: also called ErbB2-Fc Domain 1
T2 chain: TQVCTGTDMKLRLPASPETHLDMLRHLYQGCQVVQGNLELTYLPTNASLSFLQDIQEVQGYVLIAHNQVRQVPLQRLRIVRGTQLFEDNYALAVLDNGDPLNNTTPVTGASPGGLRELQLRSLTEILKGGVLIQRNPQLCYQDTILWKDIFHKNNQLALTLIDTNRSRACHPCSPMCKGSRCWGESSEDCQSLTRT


Experiments:
[1] = biological target: T3, Her2-Fc D1-D2-D3 (MR068); assay: ELISA, HER2-Fc construct captured by anti-huFc, Fab from 1 ug/ml in 5-fold steps, HRP anti-kappa/lambda
T3 construct: also called ErbB2-Fc Domains 1-3
Description: (§1) Nunc Maxisorp ELISA plates were coated with 5 ug/ml rabbit pAbs anti-human Fc gamma in PBS overnight at 4 degrees. Plates were washed one time with PBST (PBS, 0.05% tween 20) and blocked with 1% BSA in PBS for one hour at room temperature. Plates were washed one time with PBST and incubated with 1 ug/ml HER2-Fc fusion protein for one hour. Plates were washed three times with PBST and dilutions of Fab (four 5-fold serial dilutions, starting at 1 ug/ml) in block were added and incubated for ninety minutes. Plates were washed three times with PBST and incubated with 1:2,000 HRP-labelled goat anti-human kappa (Southern Biotech cat#2060-05) and HRP-labelled goat anti-human lambda (Southern Biotech cat#2070-05) in block for one hour at room temperature. Plates were washed three times with PBST, developed with TMB solution for 5 minutes, and stopped with equal volume 1 N H₂SO₄. Absorbance values were read at 450 nm.

[2] = biological target: T1, Her2-Fc D1-D2 (MR067); assay: as above
Description: as §1

[3] = biological target: T4, Her2-Fc D1-D2-D3-D4 (MR069); assay: as above
T4 construct: made in house, kept apart from the R&D Systems HER2-Fc; also called ErbB2-Fc full length ECD
Description: as §1

[4] = biological target: T2, Her2-Fc D1 (MR066); assay: as above
Description: as §1

[5] = biological target: T5, EGFR on MDA-MB-468 cells (UniProt P00533 25-1210, limits assumed); assay: FACS on MDA-MB-468 cells (EGFR+, HER2-)
T5 construct: whole, on cells; also called MDA-MB-468 tumor cell line (EGFR+, HER2-)

[6] = biological target: T6, human HER2/ErbB2 on cells (human, UniProt P04626 23-1255); assay: flow cytometry on CHO cells expressing human HER2
T6 construct: whole, on cells; also called hHER2/ErbB2; wild type HER2/ErbB
Description: CHO cells (Chinese Hamster Ovary cells) stably transfected with hHER2 expression vector and selected in G418 containing medium. G418 resistant clones were pooled and split 24 hours prior to the setup of the assay to obtain 70% confluent monolayer. Routinely, CHO cell line was maintained within 20 passages. Cells were lifted with cell dissociation buffer (Gibco catalog #13151-014), counted, washed and adjusted to 1×10⁶ cells/ml and one ml of cells were then added to each tube (12×75 mm tube Falcon catalog #352054). Cells were pelleted and supernatant removed by centrifugation at 1200 rpm for 5 min and 100 μl of diluted antibodies were then added to the cell pellet. Purified Fabs were tested at a starting concentration of either 210 or 60 μg/ml with 1:3 dilutions in FACS buffer, down to 0.001 μg/ml. FACS buffer used throughout the assay was PBS (without Ca^{+±}/Mg^{+±}) containing 1% BSA (Sigma catalog #A-7906) and 0.1% Sodium Azide (Sigma catalog #S2002). Samples were allowed to incubate on ice for 1 hour and 15 minutes then were washed with 2 ml FACS buffer and centrifuged at 1200 rpm for 5 minutes at 4° C. The supernatant was aspirated and 100 μl of the secondary detection antibody was added to each corresponding tube in FACS buffer. Samples were then incubated for 30 minutes on ice, in the dark. Cells were washed as described above, then, re-suspended in 250 μl FACS buffer per tube/sample.
A full titration was performed on MCF7 and SKBR3 tumor cell lines, and human Her2-CHO and murine Her2-CHO cell lines in order to calculate an approximate EC50 (data not shown, see summary in Table 1).

[7] = biological target: T7, murine HER2 on CHO cells (mouse, UniProt P70424 23-1256); assay: FACS on CHO cells expressing murine HER2
T7 construct: whole, on cells; also called mHER2/ErbB2; murine Her2-CHO

Row | Binder | binding result [1] | binding result [2] | binding result [3] | binding result [4] | binding result [5] | EC50 [6] | binding result [7]
1 | BIIB66C01 Fab (Fab, V domains shown, Soluble human Fab from a naive phagemid Fab library) VH: EVQLLESGGGLVQPGGSLRLSCAASGFTFSWYSMSWVRQAPGKGLEWVSSISSSGGPTHYADSVKGRFTISRDNSKNTLYLQMNSLRAEDTAVYYCARDSSYSGTSWGQGTLVTVSS VL: QYELTQPPSVSGTPGQRVTISCSGSSSNIGSEYVYWFQQLPGTAPRLLIYRNDQRPSGVPDRFSGSKSGTSASLAISGLRSEDETDYYCTTWDDSLSGPVFGGGTKLTVL | binds | no binding (tested: 1 ug/ml) | binds | no binding (tested: 1 ug/ml) | no binding | 12 nM | no binding
2 | BIIB67F11 Fab (Fab, V domains shown, Soluble human Fab from a naive phagemid Fab library) VH: EVQLLESGGGLVQPGGSLRLSCAASGFTFSNYYMMWVRQAPGKGLEWVSVIGSSGGMTNYADSVKGRFTISRDNSKNTLYLQMNSLRAEDTAVYYCARGYPTGYYDSSGWVYSYYGIDVWGQGTTVTVSS VL: DIQMTQSPSSLSASIGDRVTITCQASQDTDNRLHWYQQKSGRAPKLLIYDAVNLKRGVPSRFRGSGSGTNFILTITNLQPEDMATYFCQHSDGLSLAFGGGTKLEIK | binds | binds | binds | binds | no binding | 7 nM | no binding
3 | BIIB66A12 Fab (Fab, V domains shown, Soluble human Fab from a naive phagemid Fab library) VH: EVQLLESGGGLVQPGGSLRLSCAASGFTFSMYSMQWVRQAPGKGLEWVSVIGSSGGQTGYADSVKGRFTISRDNSKNTLYLQMNSLRAEDTAVYYCARVRDYYGSGSYYLDPWGQGTLVTVSS VL: not shown | binds | no binding (tested: 1 ug/ml) | binds | no binding (tested: 1 ug/ml) | no binding | 60 nM | no binding
4 | BIIB65C10 Fab (Fab, V domains shown, Soluble human Fab from a naive phagemid Fab library) VH: EVQLLESGGGLVQPGGSLRLSCAASGFTFSYYPMMWVRQAPGKGLEWVSSIWPSGGFTKYADSVKGRFTISRDNSKNTLYLQMNSLRAEDTATYYCARVSSSSWYGYLYWGQGTLVTVSS VL: not shown | binds | binds | binds | no binding (tested: 1 ug/ml) | no binding | 6 nM | no binding
5 | BIIB67F10 Fab (Fab, V domains shown, Soluble human Fab from a naive phagemid Fab library) VH: EVQLLESGGGLVQPGGSLRLSCAASGFTFSPYMMVWVRQAPGKGLEWVSWISPSGGYTFYADSVKGRFTISRDNSKNTLYLQMNSLRAEDTAVYYCAYGTYPLTYWGQGTLVTVSS VL: QSELTQTPSVSVSPGQTASITCSGDKLGDKYVSWFQLKPGQSPLLVIYQDSKWPSGIPERFSGSNSGNTATLTISGTQATDEADYYCQVWDISHVVFGGGTKLTVL | binds | binds | binds | binds | no binding | 2 nM | no binding
6 | BIIB69A09 Fab (Fab, V domains shown, Soluble human Fab from a naive phagemid Fab library) VH: EVQLLESGGGLVQPGGSLRLSCAASGFTFSRYNMWWVRQAPGKGLEWVSVIRSSGGYTGYADSVKGRFTISRDNSKNTLYLQMNSLRAEDTAVYYCARWNSGYSYWDYYYGMDVWGQGTTVTVSS VL: DIQMTQSPSSLSASVGDRVTITCRASQSISSYLNWYQQKPGKAPKLLIYAASSLQSGVPSRFSGSGSGTDFTLTISSLQPEDFATYYCQQFNTYPITFGPGTKVDIK | binds | binds | binds | binds | no binding | 2 nM | no binding
7 | BIIB65H09 Fab (Fab, V domains shown, Soluble human Fab from a naive phagemid Fab library) VH: EVQLLESGGGLVQPGGSLRLSCAASGFTFSWYSMWWVRQAPGKGLEWVSSIVSSGGQTRYADSVKGRFTISRDNSKNTLYLQMNSLRAEDTAVYYCARVKGYYYYIDVWGKGTTVTVSS VL: DIQMTQSPGTLSLSPGERATLSCRASQSVDSSYLSWYQQKPGQAPRLLIYGASTRATGIPARFSGSGSGTDFTLTVSRLEPEDFAVYYCQQHGYSSRTFGQGTKVEIK | binds | no binding (tested: 1 ug/ml) | binds | no binding (tested: 1 ug/ml) | no binding | 20 nM | no binding
8 | BIIB65B03 Fab (Fab, V domains shown, Soluble human Fab from a naive phagemid Fab library) VH: EVQLLESGGGLVQPGGSLRLSCAASGFTFSWYRMNWVRQAPGKGLEWVSSIYSSGGPTNYADSVKGRFTISRDNSQNTLYLQMNSLRAEDTAVYYCTREKPDYYDSSGYLDYWGQGTLVTVSS VL: DIQMTQSPGTLSLSPGERSTLSCRASQSVSSSYLAWYQQKPGQAPRLLIYGASSRATGIPDRFSGSGSGTDFTLTISRLEPEDFGVYYCHQYGRPPVFGPGTKVDIK | binds | no binding (tested: 1 ug/ml) | binds | no binding (tested: 1 ug/ml) | no binding | 15 nM | no binding
